Laboratory results: patent US20240132578A1
Several values for one entry are separate records, joined by “and”; a condition that tells them apart may be missing. Equal values may be shown once.

Key:
Assay in all cases: cell-based or functional assay
[1] = biological target: HIV-1 94UG103 envelope glycoprotein (Env) on pseudovirus (HIV-1)
[2] = biological target: HIV-1 MGRM-C-028 envelope glycoprotein (Env) on pseudovirus (HIV-1)
[3] = biological target: HIV-1 93IN905 envelope glycoprotein (Env) on pseudovirus (HIV-1)
[4] = biological target: HIV-1 NL43 envelope glycoprotein (Env) on pseudovirus (HIV-1)
[5] = biological target: HIV-1 APV6 envelope glycoprotein (Env) on pseudovirus (HIV-1)
[6] = biological target: HIV-1 92RW020 envelope glycoprotein (Env) on pseudovirus (HIV-1)
[7] = biological target: HIV-1 MGRM-A-010 envelope glycoprotein (Env) on pseudovirus (HIV-1)
[8] = biological target: HIV-1 MGRM-C-027 envelope glycoprotein (Env) on pseudovirus (HIV-1)
[9] = biological target: HIV-1 JRCSF envelope glycoprotein (Env) on pseudovirus (HIV-1) (UniProt P20871)
[10] = biological target: HIV-1 MGRM-C-026 envelope glycoprotein (Env) on pseudovirus (HIV-1)
[11] = biological target: HIV-1 Env of pseudovirus MGRM-C-26 (HIV-1)
[12] = biological target: HIV-1 Env of pseudovirus 92TH021 (HIV-1)
[13] = biological target: HIV-1 Env of pseudovirus JRCSF (HIV-1) (UniProt P20871)
[14] = biological target: HIV-1 Env of pseudovirus 94UG103 (HIV-1)
[15] = biological target: HIV-1 Env of pseudovirus 92BR020 (HIV-1)
[16] = biological target: HIV-1 APV13 envelope glycoprotein (Env) on pseudovirus (HIV-1)
[17] = biological target: HIV-1 93UG077 envelope glycoprotein (Env) on pseudovirus (HIV-1)
[18] = biological target: HIV-1 APV17 envelope glycoprotein (Env) on pseudovirus (HIV-1)
[19] = biological target: HIV-1 JRFL envelope glycoprotein (Env) on pseudovirus (HIV-1)
[20] = biological target: HIV-1 92BR020 envelope glycoprotein (Env) on pseudovirus (HIV-1)

Sequence of PGT-136 monoclonal antibody (5329_C19; 5366_P21) (VH): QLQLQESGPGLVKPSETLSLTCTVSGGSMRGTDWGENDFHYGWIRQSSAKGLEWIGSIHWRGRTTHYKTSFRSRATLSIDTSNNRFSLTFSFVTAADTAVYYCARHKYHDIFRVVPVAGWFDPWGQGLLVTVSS
Sequence of PGT-136 monoclonal antibody (5329_C19; 5366_P21) (VL): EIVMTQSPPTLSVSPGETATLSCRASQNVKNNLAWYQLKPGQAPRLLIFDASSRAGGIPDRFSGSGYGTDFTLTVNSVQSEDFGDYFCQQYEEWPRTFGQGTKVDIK

1496_C09 (PG9) (TCN-109) monoclonal antibody
IC50 neutralization [1]: 0.31 µg/mL
IC50 neutralization [2]: 0.121 µg/mL
IC50 neutralization [3]: 0.048 µg/mL
IC50 neutralization [4]: 0.687 µg/mL
IC50 neutralization [5]: 0.214 µg/mL
IC50 neutralization [6]: 0.161 µg/mL
IC50 neutralization [7]: 0.0375 µg/mL
IC50 neutralization [8]: 2.45 µg/mL
IC50 neutralization [9]: 0.0048 µg/mL
IC50 neutralization [10]: 0.113 µg/mL

Antibody of B cell culture well 5113_D22 (labelled PGT-132 in Table 26)
Primary Neutralization Index (B cell culture supernatant) [11]: 6
Primary Neutralization Index (B cell culture supernatant) [12]: 51
Primary Neutralization Index (B cell culture supernatant) [13]: 3

Antibody of B cell culture well 5117_E22 (labelled PGT-133 in Table 26)
Primary Neutralization Index (B cell culture supernatant) [11]: 3.4
Primary Neutralization Index (B cell culture supernatant) [12]: 42.5
Primary Neutralization Index (B cell culture supernatant) [13]: 3.6

PGT-121 (B cell culture wells 4838_L06 and 4873_E03) (antibody)
Primary Neutralization Index (B cell culture supernatant) [14]: 1.4 and 0.8
Primary Neutralization Index (B cell culture supernatant) [11]: 996 and 371
Primary Neutralization Index (B cell culture supernatant) [13]: 3.2 and 2.2
Primary Neutralization Index (B cell culture supernatant) [15]: 4.9 and 3.6

PGT-121 monoclonal antibody (4838_L06; 4873_E03)
IC50 neutralization [4]: > 10 µg/mL

PGT-122 (B cell culture well 4877_D15) (antibody)
Primary Neutralization Index (B cell culture supernatant) [14]: 1.3
Primary Neutralization Index (B cell culture supernatant) [11]: 37.5
Primary Neutralization Index (B cell culture supernatant) [13]: 2.3
Primary Neutralization Index (B cell culture supernatant) [15]: 5.4

PGT-122 monoclonal antibody (4877_D15)
IC50 neutralization [16]: 0.992 µg/mL
IC50 neutralization [1]: 1.46 µg/mL
IC50 neutralization [2]: 2.06 µg/mL
IC50 neutralization [17]: 0.191 µg/mL
IC50 neutralization [3]: 0.0138 µg/mL
IC50 neutralization [18]: 0.522 µg/mL
IC50 neutralization [4]: > 10 µg/mL
IC50 neutralization [19]: 0.0471 µg/mL
IC50 neutralization [5]: 0.0851 µg/mL
IC50 neutralization [6]: 0.0072 µg/mL
IC50 neutralization [20]: 0.0337 µg/mL
IC50 neutralization [7]: 1.68 µg/mL
IC50 neutralization [8]: 0.0388 µg/mL
IC50 neutralization [9]: 0.0727 µg/mL
IC50 neutralization [10]: 0.0089 µg/mL

PGT-123 monoclonal antibody (4858_P08)
IC50 neutralization [16]: 0.222 µg/mL
IC50 neutralization [1]: 0.846 µg/mL
IC50 neutralization [2]: 0.443 µg/mL
IC50 neutralization [17]: 0.0303 µg/mL
IC50 neutralization [3]: 0.0071 µg/mL
IC50 neutralization [18]: 0.18 µg/mL
IC50 neutralization [4]: > 10 µg/mL
IC50 neutralization [19]: 0.0283 µg/mL
IC50 neutralization [5]: 0.0328 µg/mL
IC50 neutralization [6]: 0.0038 µg/mL
IC50 neutralization [20]: 0.013 µg/mL
IC50 neutralization [7]: 0.492 µg/mL
IC50 neutralization [8]: 0.0169 µg/mL
IC50 neutralization [9]: 0.0423 µg/mL
IC50 neutralization [10]: 0.0031 µg/mL

PGT-125 monoclonal antibody (5123_A06)
IC50 neutralization [16]: 0.0128 µg/mL
IC50 neutralization [1]: 0.0124 µg/mL
IC50 neutralization [2]: 5.78 µg/mL
IC50 neutralization [17]: 0.0262 µg/mL
IC50 neutralization [3]: 0.0137 µg/mL
IC50 neutralization [18]: 7.31 µg/mL
IC50 neutralization [4]: > 10 µg/mL
IC50 neutralization [19]: 0.0156 µg/mL
IC50 neutralization [5]: 0.0359 µg/mL
IC50 neutralization [6]: 0.0028 µg/mL
IC50 neutralization [20]: 0.0214 µg/mL
IC50 neutralization [7]: 0.0055 µg/mL
IC50 neutralization [8]: > 10 µg/mL
IC50 neutralization [9]: 0.006 µg/mL
IC50 neutralization [10]: 0.0106 µg/mL

PGT-126 monoclonal antibody (5141_B17)
IC50 neutralization [16]: 0.012 µg/mL
IC50 neutralization [1]: 0.0091 µg/mL
IC50 neutralization [2]: 0.283 µg/mL
IC50 neutralization [17]: 0.0256 µg/mL
IC50 neutralization [3]: 0.0194 µg/mL
IC50 neutralization [18]: 0.501 µg/mL
IC50 neutralization [4]: > 10 µg/mL
IC50 neutralization [19]: 0.014 µg/mL
IC50 neutralization [5]: 0.0249 µg/mL
IC50 neutralization [6]: 0.0046 µg/mL
IC50 neutralization [20]: 0.0163 µg/mL
IC50 neutralization [7]: 0.0033 µg/mL
IC50 neutralization [8]: 1.14 µg/mL
IC50 neutralization [9]: 0.0061 µg/mL
IC50 neutralization [10]: 0.0076 µg/mL

PGT-130 monoclonal antibody (5147_N06)
IC50 neutralization [16]: 0.0345 µg/mL
IC50 neutralization [1]: 0.635 µg/mL
IC50 neutralization [2]: > 10 µg/mL
IC50 neutralization [17]: > 10 µg/mL
IC50 neutralization [3]: 0.0182 µg/mL
IC50 neutralization [18]: > 10 µg/mL
IC50 neutralization [4]: > 10 µg/mL
IC50 neutralization [19]: 0.0346 µg/mL
IC50 neutralization [5]: > 10 µg/mL
IC50 neutralization [6]: 0.014 µg/mL
IC50 neutralization [20]: 1.12 µg/mL
IC50 neutralization [7]: 0.0054 µg/mL
IC50 neutralization [8]: 0.0052 µg/mL
IC50 neutralization [9]: 0.0089 µg/mL
IC50 neutralization [10]: 0.0173 µg/mL

PGT-135 monoclonal antibody (5343_B08; 5344_E16)
IC50 neutralization [16]: 0.545 µg/mL
IC50 neutralization [1]: > 10 µg/mL
IC50 neutralization [2]: 2.16 µg/mL
IC50 neutralization [17]: > 10 µg/mL
IC50 neutralization [3]: 0.0183 µg/mL
IC50 neutralization [18]: > 10 µg/mL
IC50 neutralization [4]: 6.79 µg/mL
IC50 neutralization [19]: > 10 µg/mL
IC50 neutralization [5]: > 10 µg/mL
IC50 neutralization [6]: 0.157 µg/mL
IC50 neutralization [20]: 0.104 µg/mL
IC50 neutralization [7]: > 10 µg/mL
IC50 neutralization [8]: > 10 µg/mL
IC50 neutralization [9]: 0.113 µg/mL
IC50 neutralization [10]: 0.0123 µg/mL

PGT-136 monoclonal antibody (5329_C19; 5366_P21)
IC50 neutralization [16]: > 10 µg/mL
IC50 neutralization [1]: > 10 µg/mL
IC50 neutralization [2]: > 10 µg/mL
IC50 neutralization [17]: > 10 µg/mL
IC50 neutralization [3]: 0.0135 µg/mL
IC50 neutralization [18]: > 10 µg/mL
IC50 neutralization [4]: > 10 µg/mL
IC50 neutralization [19]: > 10 µg/mL
IC50 neutralization [5]: > 10 µg/mL
IC50 neutralization [6]: 0.738 µg/mL
IC50 neutralization [20]: > 10 µg/mL
IC50 neutralization [7]: > 10 µg/mL
IC50 neutralization [8]: > 10 µg/mL
IC50 neutralization [9]: > 10 µg/mL
IC50 neutralization [10]: 0.0065 µg/mL
